Laboratory results published in US11572572B2, “A138T mutation-containing plant EPSPS mutant, and encoding gene and application thereof” (GEVOTO LLC, priority 2017, dated 2023).

B1: R3: Oryza sativa EPSPS mutant II with G111(96)A and A155(138)T (SEQ ID NO: 7), encoding gene SEQ ID NO: 17 (protein)
chain: MASNAAAAAAKAEEIVLQPIREISGAVQLPGSKSLSNRILLLSALSEGTTVVDNLLNSEDVHYMLEALKALGLSVEADKVAKRAVVVGCGGKFPVEKDAKEEVQLFLGNAATAMRPLTAAVTAAGGNATYVLDGVPRMRERPIGDLVVGLKQLGTDVDCFLGTECPPVRVKGIGGLPGGKVKLSGSISSQYLSALLMAAPLALGDVEIEIIDKLISIPYVEMTLRLMERFGVKAEHSDSWDRFYIKGGQKYKSPGNAYVEGDASSASYFLAGAAITGGTVTVQGCGTTSLQGDVKFAEVLEMMGAKVTWTDTSVTVTGPPREPYGKKHLKAVDVNMNKMPDVAMTLAVVALFADGPTAIRDVASWRVKETERMVAIRTELTKLGASVEEGPDYCIITPPEKLNITAIDTYDDHRMAMAFSLAACADVPVTIRDPGCTRKTFPNYFDVLSTFVRN
modifications: Oryza sativa EPSPS mutant with mutations G111(96)A and A155(138)T
B2: T2: Triticum aestivum EPSPS mutant containing G113(96)A, P118(101)S, and A157(138)T (SEQ ID NO: 11), gene SEQ ID NO: 22; experimental group of Example 7 (protein)
chain: MATSVAAPAAPAGAEEVVLQPIREISGAVQLPGSKSLSNRILLLSALSEGTTVVDNLLNSEDVHYMLEALEALGLSVEADKVAKRAVVVGCGGRFPVEKDAKEEVKLFLGNAATAMRSLTAAVVAAGGNATYVLDGVPRMRERPIGDLVVGLQQLGTDVDCFLGTNCPPVRINGKGGLPGGKVKLSGSISSQYLSSLLMAAPLALEDVEIEIIDKLISVPYVEMTLKLMEHFGVTAEHSDSWDRFYIKGGQKYKSPGNAYVEGDASSASYFLAGAAITGGTVTVEGCGTTSLQGDVKFAEVLEMMGAKVTWTDTSVTVTGPPRQPFGRKHLKAVDVNMNKMPDVAMTLAVVALFADGPTAIRDVASWRVKETERMVAIRTELTKLGATVEEGPDYCIITPPEKLNITAIDTYDDHRMAMAFSLAACAEVPVTIRDPGCTRKTFPNYFDVLSTFVKN
modifications: Triticum aestivum EPSPS mutant with mutations G113(96)A, P118(101)S, and A157(138)T

What was measured:
[1] = test system: double-knockout Escherichia coli strain (EDCE); experiment: Growth of double-knockout E. coli (EDCE) transformed with Oryza sativa EPSPS genes in glyphosate media (Example 5); assay type: cell-based; settings: for growth status of transformed Escherichia coli: Example 5, FIG. 1
Description: An Escherichia coli strain transformed with the Oryza sativa EPSPS mutant I-encoding gene according to Example 1 was used as Experimental Group 1 (having only the A155(138)T mutation).
An Escherichia coli strain transformed with the Oryza sativa EPSPS mutant II-encoding gene according to Example 2 was used as Experimental Group 3 (having the G111(96)A mutation and A155(138)T mutation).
An Escherichia coli strain transformed with a wild-type Oryza sativa EPSPS-encoding gene (SEQ ID NO: 14, encoding wild-type Oryza sativa EPSPS set forth in SEQ ID NO: 5) was used as a control group.
The glyphosate resistance of the Oryza sativa EPSPS mutant I-encoding gene and the encoded Oryza sativa EPSPS mutant I in Escherichia coli, and the glyphosate resistance of the Oryza sativa EPSPS mutant II-encoding gene and the encoded Oryza sativa EPSPS mutant II in Escherichia coli were verified by detecting the growth statuses of the transformed Escherichia coli in media containing different concentrations of glyphosate (0 mM, 1 mM, 2 mM, 20 mM) (media obtained by using M9 as a basal medium and then adding certain concentrations of antibiotics Spec (Spectinomycin), Gen (Gentamycin), and Amp (Ampicillin) and different concentrations of glyphosate).
Here, the Escherichia coli strain used was an double-knockout Escherichia coli strain (Escherichia coli strain DH5a from which an EPSPS gene and a C-P Lyase gene were knocked out, named EDCE, which may be prepared by a method with reference to Chinese Patent Application No. 2016103256926).
The detection was carried out by a method well known in the art, which was briefly described below. Gene encoding Oryza sativa EPSPS mutants was synthesized by a chemical synthesis method, wherein enzymatic digestion sites (Pacl and Sbfl) were introduced at both ends of the gene. The gene were enzymatically cleaved and then ligated in the presence of ligase to an expression vector (e.g., pADV5 vector having a structure as shown in FIG. 4) subjected to the same enzymatic digestion treatment, and then were transformed into the double-knockout Escherichia coli strain. After verification, positive clones were picked out and inoculated and grown in media containing glyphosate. The growth statuses were observed.

[2] = test system: transgenic rice seedlings; experiment: Glyphosate resistance of EPSPS mutants in transgenic rice sprayed with glyphosate (Example 8); assay type: in vivo, rice (Nipponbare)
Description: The glyphosate resistance of the EPSPS mutants of the above examples in transgenic rice was detected by the following method.
Plasmids of monoclonal resistant strain comprising pADV5-EPSPS of Examples 1-4 (containing the EPSPS mutant genes) were extracted in accordance with a conventional method. They were subjected to double enzymatic digestion with Pacl and BstEII to recover small fragments, and then the small fragments were ligated, using T4 DNA ligase, to a pGVP1 vector subjected to double enzymatic digestion in the same manner, to obtain a pGVP1-EPSPS vector having a structure as shown in FIG. 8.
The pGVP1-EPSPS vector was transformed into EHA105 (Agrobacterium tumefaciens) competent cells, and single clones were picked out for colony PCR detection to obtain positive strains. Then, the positive strains were inoculated into and propagated in 1 mL of a YEP medium containing 50 μg·mL^−1 kanamycin and 50 μg·mL^−1 rifampicin, and stored at −80° C. or used in subsequent experiments.
400 ul of a strain containing the target gene vector stored at −80° C. was added to a culture dish with a solid medium containing YEP+50 μg/mL rifampicin+50 μg/mL kanamycin and cultured in the dark at 28° C. for 24 hours, and then the bacterium was added to an infection medium and adjusted to OD=0.2 as an infection solution.
Disinfection and Pre-culture: seeds of mature rice (Nipponbare) were manually dehulled. Full seeds with no bacterial plaques were selected and disinfected in accordance with the following steps: the seeds were placed in a 50 ml sterile centrifuge tube and disinfected with the added 70% ethanol in water for 30 seconds, ethanol solution was poured out, and the seeds were washed once with sterile water; 10 to 20 ml of 2.6% sodium hypochlorite solution was added to soak and disinfect the seeds for 20 minutes. The sodium hypochlorite solution was poured out, and the seeds were soaked and washed with sterile water for 6 or 7 times, for 3 minutes each time.
Induction and Subculture: the seeds were placed on and blotted with sterile filter paper, and the mature embryos were placed in an induction medium, with 12 embryos per dish. After the operation was completed, the culture dishes were sealed with parafilm and underwent culturing in the dark at 30° C. for 21 to 28 days. Callus tissue was transferred to a fresh medium and continued to be cultured for about 7 to 14 days. Spherical callus tissue with a dimension of 1 to 2 mm was taken as an infection receptor.
The callus tissue was placed into a centrifuge tube or culture cup, infected in the prepared Agrobacterium suspension added thereto for 10 minutes, and shaken several times during the period; the bacterial solution was poured out, the callus tissue was taken out and placed on sterile filter paper for absorbing the bacterial solution from its surface (for about 30 minutes); the callus tissue was placed on sterile filter paper in culture dishes and cultured in the dark at 25° C. for 2 or 3 days.
Recovery Culture: the co-cultured callus tissue was inoculated on a recovery medium and cultured in the dark at 30° C. for 5 to 7 days.
Primary Screening: the callus was transferred to screening medium 1 (51) and cultured in the dark at 30° C. for 14 days.
Secondary Screening: the callus was then transferred to screening medium 2 (S2) and cultured in the dark at 30° C. for 14 days.
Primary Differentiation: the screened resistant callus tissue was transferred to a differentiation medium and cultured for about 21 days at 30° C. under exposure to light for 19 hours.
Secondary Differentiation: new young shoots were selected and moved to a fresh differentiation medium and continued to be cultured for about 21 days.
When the new seedlings grew to about 2 cm, they were moved to a rooting medium and cultured for 3 to 4 weeks at 30° C. under exposure to light (for 16/8 h). […]

[3] = test system: double-knockout Escherichia coli (EDCE); experiment: Growth of double-knockout E. coli (EDCE) transformed with Triticum aestivum EPSPS genes in glyphosate media (Example 7); assay type: cell-based
Experimental: An Escherichia coli strain transformed with the Triticum aestivum EPSPS mutant-encoding gene according to Example 4 was used as an experimental group.
An Escherichia coli strain transformed with a wild-type Triticum aestivum EPSPS-encoding gene (SEQ ID NO: 20, encoding wild-type Triticum aestivum EPSPS set forth in SEQ ID NO: 10 was used as Control Group 1.
The growth statuses of the transformed Escherichia coli strains in media containing different concentrations of glyphosate (0, 1, 20 mM) were detected to verify the glyphosate resistance of the Triticum aestivum EPSPS mutant-encoding gene and the encoded Triticum aestivum EPSPS mutant in Escherichia coli. Here, the Escherichia coli strain used was double-knockout Escherichia coli (Escherichia coli strain DH5a from which an EPSPS gene and a C-P Lyase gene were knocked out, named EDCE, which may be prepared by a method with reference to Chinese Patent Application. 2016103256926).

[4] = 1X dose glyphosate (1,060 g/ha), day 10 after spraying
[5] = 2X dose glyphosate (2,120 g/ha) on survivors of 1X, after another 10 days
[6] = 5X dose glyphosate (5,300 g/ha) on survivors of 2X, after additional 10 days
[7] = 20X dose glyphosate (21,200 g/ha) on survivors of 5X, after further 10 days

Row | Molecule | % ++&+++ (percentage of moderately and highly glyphosate resistant plants in total plants observed) [2, 4] [%] | plant number with resistance + (low glyphosate resistant) [2, 4] | plant number with resistance ++ (moderately glyphosate resistant) [2, 4] | plant number with resistance +++ (highly glyphosate resistant) [2, 4] | % ++&+++ (percentage of moderately and highly glyphosate resistant plants in total plants observed) [2, 5] [%] | plant number with resistance + (low glyphosate resistant) [2, 5] | plant number with resistance ++ (moderately glyphosate resistant) [2, 5] | plant number with resistance +++ (highly glyphosate resistant) [2, 5] | plant number with resistance − (non-glyphosate resistant, withered or dead) [2, 5] | % ++&+++ (percentage of moderately and highly glyphosate resistant plants in total plants observed) [2, 6] [%] | plant number with resistance + (low glyphosate resistant) [2, 6] | plant number with resistance ++ (moderately glyphosate resistant) [2, 6] | plant number with resistance +++ (highly glyphosate resistant) [2, 6] | plant number with resistance − (non-glyphosate resistant, withered or dead) [2, 6] | % ++&+++ (percentage of moderately and highly glyphosate resistant plants in total plants observed) [2, 7] [%] | plant number with resistance + (low glyphosate resistant) [2, 7] | plant number with resistance ++ (moderately glyphosate resistant) [2, 7] | plant number with resistance +++ (highly glyphosate resistant) [2, 7] | plant number with resistance − (non-glyphosate resistant, withered or dead) [2, 7] | further results
1 | B1 | 70.8 | 1 | 9 | 25 | 66.7 | 0 | 4 | 28 | 16 | 50.0 | 0 | 13 | 11 | 24 | 22.9 | 7 | 7 | 4 | 30 | glyphosate concentration of medium in which the E. coli strain was kept in a growing state ([1]; Example 5): up to 20 mM; growth status of transformed Escherichia coli ([1]; medium containing 1 mM glyphosate): showed bacterial plaques; growth status of transformed Escherichia coli ([1]; medium containing 2 mM glyphosate): could grow normally; growth status of transformed Escherichia coli ([1]; medium containing 20 mM glyphosate): could grow normally
2 | B2 | 75.0 | 2 | 4 | 20 | 59.4 | 3 | 2 | 17 | 10 | 50.0 | 5 | 14 | 2 | 11 | 21.9 | 11 | 7 | 0 | 14 | glyphosate concentration of medium in which the E. coli strain was kept in a growing state [3]: up to 20 mM; level of glyphosate resistance of transformed rice seedlings compared with the mutant lacking the A138T mutation (R4 for R5, T1 for T2) (in words) ([2]; each of 1×, 2×, 5×, and 20× glyphosate doses): higher levels of glyphosate resistance
